In PMC10786891, “Massively parallel profiling of RNA-targeting CRISPR-Cas13d”:

T1: EsCas13d, nuclease-dead (Eubacterium siraeum, UniProt B0MS50, R295A;H300A;R849A;H854A)
T1 sequence: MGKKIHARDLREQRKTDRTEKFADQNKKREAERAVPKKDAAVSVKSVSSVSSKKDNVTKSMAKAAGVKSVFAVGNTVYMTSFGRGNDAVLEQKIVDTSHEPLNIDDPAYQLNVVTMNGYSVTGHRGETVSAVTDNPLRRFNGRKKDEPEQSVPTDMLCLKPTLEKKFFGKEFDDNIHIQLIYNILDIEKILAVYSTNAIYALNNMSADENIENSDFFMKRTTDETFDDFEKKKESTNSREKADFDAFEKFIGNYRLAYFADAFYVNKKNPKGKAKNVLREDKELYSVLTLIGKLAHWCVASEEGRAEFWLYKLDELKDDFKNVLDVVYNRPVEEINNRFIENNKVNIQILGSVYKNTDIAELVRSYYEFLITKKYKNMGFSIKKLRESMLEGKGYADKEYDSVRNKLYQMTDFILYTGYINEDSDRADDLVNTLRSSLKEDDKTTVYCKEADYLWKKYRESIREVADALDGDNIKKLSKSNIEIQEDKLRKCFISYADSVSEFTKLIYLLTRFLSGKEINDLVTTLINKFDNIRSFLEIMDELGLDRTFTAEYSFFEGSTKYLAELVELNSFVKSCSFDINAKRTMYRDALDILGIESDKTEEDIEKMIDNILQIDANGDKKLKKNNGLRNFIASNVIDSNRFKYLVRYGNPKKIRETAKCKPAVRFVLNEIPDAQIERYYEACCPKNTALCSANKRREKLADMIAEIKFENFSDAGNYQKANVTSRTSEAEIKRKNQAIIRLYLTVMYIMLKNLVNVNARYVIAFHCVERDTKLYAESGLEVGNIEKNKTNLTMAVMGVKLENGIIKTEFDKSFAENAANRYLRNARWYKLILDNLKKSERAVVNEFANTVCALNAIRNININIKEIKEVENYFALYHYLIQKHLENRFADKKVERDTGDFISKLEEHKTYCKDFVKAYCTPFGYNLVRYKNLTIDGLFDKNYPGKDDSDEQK

B1: target 2 MT 5'PFS AGC 3'PFS AUU (mixed)
RNA 1: CACCCGUGCAAAAUUGCAGGGGUCUAAAACCUUCUCCAAAUUGUUUCAUCCU
RNA 2: GGGAAUGGAUCCACAUCUACGAAUUCAGCAGGAUGAAACAAUUUGGAGAAGAUUAGAUCGGAAGAGCACACGU
B2: target 2 MT 5'PFS AGG 3'PFS ACU (mixed)
RNA 1: CACCCGUGCAAAAUUGCAGGGGUCUAAAACCUUCUCCAAAUUGUUUCAUCCU
RNA 2: GGGAAUGGAUCCACAUCUACGAAUUCAGGAGGAUGAAACAAUUUGGAGAAGACUAGAUCGGAAGAGCACACGU
B3: target 2 MT 5'PFS AGG 3'PFS UCU (mixed)
RNA 1: CACCCGUGCAAAAUUGCAGGGGUCUAAAACCUUCUCCAAAUUGUUUCAUCCU
RNA 2: GGGAAUGGAUCCACAUCUACGAAUUCAGGAGGAUGAAACAAUUUGGAGAAGUCUAGAUCGGAAGAGCACACGU
B4: target 2 MT 5'PFS CGG 3'PFS CCG (mixed)
RNA 1: CACCCGUGCAAAAUUGCAGGGGUCUAAAACCUUCUCCAAAUUGUUUCAUCCU
RNA 2: GGGAAUGGAUCCACAUCUACGAAUUCCGGAGGAUGAAACAAUUUGGAGAAGCCGAGAUCGGAAGAGCACACGU
B5: target 2 MT 5'PFS CGC 3'PFS CUU (mixed)
RNA 1: CACCCGUGCAAAAUUGCAGGGGUCUAAAACCUUCUCCAAAUUGUUUCAUCCU
RNA 2: GGGAAUGGAUCCACAUCUACGAAUUCCGCAGGAUGAAACAAUUUGGAGAAGCUUAGAUCGGAAGAGCACACGU
B6: target 2 MT 5'PFS UUC 3'PFS UUC (mixed)
RNA 1: CACCCGUGCAAAAUUGCAGGGGUCUAAAACCUUCUCCAAAUUGUUUCAUCCU
RNA 2: GGGAAUGGAUCCACAUCUACGAAUUCUUCAGGAUGAAACAAUUUGGAGAAGUUCAGAUCGGAAGAGCACACGU
B7: target 2 MT 5'PFS ACG 3'PFS UUC (mixed)
RNA 1: CACCCGUGCAAAAUUGCAGGGGUCUAAAACCUUCUCCAAAUUGUUUCAUCCU
RNA 2: GGGAAUGGAUCCACAUCUACGAAUUCACGAGGAUGAAACAAUUUGGAGAAGUUCAGAUCGGAAGAGCACACGU
B8: target 2 MT 5'PFS GAA 3'PFS UGC (mixed)
RNA 1: CACCCGUGCAAAAUUGCAGGGGUCUAAAACCUUCUCCAAAUUGUUUCAUCCU
RNA 2: GGGAAUGGAUCCACAUCUACGAAUUCGAAAGGAUGAAACAAUUUGGAGAAGUGCAGAUCGGAAGAGCACACGU
B9: target 2 MT 5'PFS UCG 3'PFS UAG (mixed)
RNA 1: CACCCGUGCAAAAUUGCAGGGGUCUAAAACCUUCUCCAAAUUGUUUCAUCCU
RNA 2: GGGAAUGGAUCCACAUCUACGAAUUCUCGAGGAUGAAACAAUUUGGAGAAGUAGAGAUCGGAAGAGCACACGU
B10: target 2 MT 5'PFS CGG 3'PFS CCC (mixed)
RNA 1: CACCCGUGCAAAAUUGCAGGGGUCUAAAACCUUCUCCAAAUUGUUUCAUCCU
RNA 2: GGGAAUGGAUCCACAUCUACGAAUUCCGGAGGAUGAAACAAUUUGGAGAAGCCCAGAUCGGAAGAGCACACGU
B11: target 2 MT 5'PFS UCU 3'PFS CCG (mixed)
RNA 1: CACCCGUGCAAAAUUGCAGGGGUCUAAAACCUUCUCCAAAUUGUUUCAUCCU
RNA 2: GGGAAUGGAUCCACAUCUACGAAUUCUCUAGGAUGAAACAAUUUGGAGAAGCCGAGAUCGGAAGAGCACACGU
B12: target 2 MT 5'PFS AUU 3'PFS UUU (mixed)
RNA 1: CACCCGUGCAAAAUUGCAGGGGUCUAAAACCUUCUCCAAAUUGUUUCAUCCU
RNA 2: GGGAAUGGAUCCACAUCUACGAAUUCAUUAGGAUGAAACAAUUUGGAGAAGUUUAGAUCGGAAGAGCACACGU
B13: target 2 MT 5'PFS ACG 3'PFS AGA (mixed)
RNA 1: CACCCGUGCAAAAUUGCAGGGGUCUAAAACCUUCUCCAAAUUGUUUCAUCCU
RNA 2: GGGAAUGGAUCCACAUCUACGAAUUCACGAGGAUGAAACAAUUUGGAGAAGAGAAGAUCGGAAGAGCACACGU
B14: target 2 MT 5'PFS AGG 3'PFS ACC (mixed)
RNA 1: CACCCGUGCAAAAUUGCAGGGGUCUAAAACCUUCUCCAAAUUGUUUCAUCCU
RNA 2: GGGAAUGGAUCCACAUCUACGAAUUCAGGAGGAUGAAACAAUUUGGAGAAGACCAGAUCGGAAGAGCACACGU
B15: target 2 MT 5'PFS CAU 3'PFS CGC (mixed)
RNA 1: CACCCGUGCAAAAUUGCAGGGGUCUAAAACCUUCUCCAAAUUGUUUCAUCCU
RNA 2: GGGAAUGGAUCCACAUCUACGAAUUCCAUAGGAUGAAACAAUUUGGAGAAGCGCAGAUCGGAAGAGCACACGU
B16: target 2 MT 5'PFS AAU 3'PFS AUA (mixed)
RNA 1: CACCCGUGCAAAAUUGCAGGGGUCUAAAACCUUCUCCAAAUUGUUUCAUCCU
RNA 2: GGGAAUGGAUCCACAUCUACGAAUUCAAUAGGAUGAAACAAUUUGGAGAAGAUAAGAUCGGAAGAGCACACGU
B17: target 2 MT 5'PFS AAU 3'PFS AUC (mixed)
RNA 1: CACCCGUGCAAAAUUGCAGGGGUCUAAAACCUUCUCCAAAUUGUUUCAUCCU
RNA 2: GGGAAUGGAUCCACAUCUACGAAUUCAAUAGGAUGAAACAAUUUGGAGAAGAUCAGAUCGGAAGAGCACACGU
B18: target 2 MT 5'PFS AAU 3'PFS AUU (mixed)
RNA 1: CACCCGUGCAAAAUUGCAGGGGUCUAAAACCUUCUCCAAAUUGUUUCAUCCU
RNA 2: GGGAAUGGAUCCACAUCUACGAAUUCAAUAGGAUGAAACAAUUUGGAGAAGAUUAGAUCGGAAGAGCACACGU
B19: target 2 MT 5'PFS GUG 3'PFS UGC (mixed)
RNA 1: CACCCGUGCAAAAUUGCAGGGGUCUAAAACCUUCUCCAAAUUGUUUCAUCCU
RNA 2: GGGAAUGGAUCCACAUCUACGAAUUCGUGAGGAUGAAACAAUUUGGAGAAGUGCAGAUCGGAAGAGCACACGU
B20: target 2 MT 5'PFS UCG 3'PFS UAA (mixed)
RNA 1: CACCCGUGCAAAAUUGCAGGGGUCUAAAACCUUCUCCAAAUUGUUUCAUCCU
RNA 2: GGGAAUGGAUCCACAUCUACGAAUUCUCGAGGAUGAAACAAUUUGGAGAAGUAAAGAUCGGAAGAGCACACGU
B21: target 2 MT 5'PFS UCG 3'PFS UAU (mixed)
RNA 1: CACCCGUGCAAAAUUGCAGGGGUCUAAAACCUUCUCCAAAUUGUUUCAUCCU
RNA 2: GGGAAUGGAUCCACAUCUACGAAUUCUCGAGGAUGAAACAAUUUGGAGAAGUAUAGAUCGGAAGAGCACACGU
B22: target 2 MT 5'PFS CGG 3'PFS CCA (mixed)
RNA 1: CACCCGUGCAAAAUUGCAGGGGUCUAAAACCUUCUCCAAAUUGUUUCAUCCU
RNA 2: GGGAAUGGAUCCACAUCUACGAAUUCCGGAGGAUGAAACAAUUUGGAGAAGCCAAGAUCGGAAGAGCACACGU
B23: target 2 MT 5'PFS GAA 3'PFS UGU (mixed)
RNA 1: CACCCGUGCAAAAUUGCAGGGGUCUAAAACCUUCUCCAAAUUGUUUCAUCCU
RNA 2: GGGAAUGGAUCCACAUCUACGAAUUCGAAAGGAUGAAACAAUUUGGAGAAGUGUAGAUCGGAAGAGCACACGU
B24: target 2 MT 5'PFS ACG 3'PFS AGC (mixed)
RNA 1: CACCCGUGCAAAAUUGCAGGGGUCUAAAACCUUCUCCAAAUUGUUUCAUCCU
RNA 2: GGGAAUGGAUCCACAUCUACGAAUUCACGAGGAUGAAACAAUUUGGAGAAGAGCAGAUCGGAAGAGCACACGU
B25: target 1 insC 3' of 14,insC 3' of 3 (mixed)
RNA 1: CACCCGUGCAAAAAUGCAGGGGUCUAAAACUGAGCGGAUAACCUCUCUAUGG
RNA 2: GGGAAUGGAUCCACAUCUACGAAUUCGUACCAUAGAGACGGUUAUCCGCUCCACCGAGAUCGGAAGAGCACACGU
B26: target 1 insU 3' of 17,insG 3' of 1 (mixed)
RNA 1: CACCCGUGCAAAAAUGCAGGGGUCUAAAACUGAGCGGAUAACCUCUCUAUGG
RNA 2: GGGAAUGGAUCCACAUCUACGAAUUCGUACCAUAGUAGAGGUUAUCCGCUCAGCCGAGAUCGGAAGAGCACACGU
B27: target 1 A1U,A16U (mixed)
RNA 1: CACCCGUGCAAAAAUGCAGGGGUCUAAAACUGAGCGGAUAACCUCUCUAUGG
RNA 2: GGGAAUGGAUCCACAUCUACGAAUUCGUACCAUAGUGAGGUUAUCCGCUCUCCGAGAUCGGAAGAGCACACGU
B28: target 1 insU 3' of 21,insA 3' of 11 (mixed)
RNA 1: CACCCGUGCAAAAAUGCAGGGGUCUAAAACUGAGCGGAUAACCUCUCUAUGG
RNA 2: GGGAAUGGAUCCACAUCUACGAAUUCGUACCUAUAGAGAGGUAUAUCCGCUCACCGAGAUCGGAAGAGCACACGU

target: T1, EsCas13d, nuclease-dead; experiment: crRNA (strand 1, pre-loaded); Mg2+; 40 mM Tris-HCl pH 7.5, 150 mM NaCl, 6 mM MgCl2, 1 mM DTT, 0.1% Tween-20, 0.2 mg/ml BSA; 25 C; 10 min per concentration, then washed; conditions: tags: His6-TwinStrep-SUMO cleaved; N-terminal SNAP kept (SNAP-Surface 488); label: 3' end held by stalled T7 RNA polymerase

In order of falling Kd:
1. B27  70 ± 13 nM
2. B28  49 ± 5 nM
3. B25  45 ± 7 nM
4. B22  37 ± 18 nM
5. B21  34 ± 14 nM
6. B12  32 ± 7 nM
7. B6  31 ± 8 nM
8. B9  27 ± 7 nM
9. B10  ~19 nM
10. B23  18 ± 2.7 nM
11. B26  17.7 ± 2.1 nM
12. B11  17.4 ± 3 nM
13. B19  17.1 ± 2.5 nM
14. B7  16 ± 6 nM
15. B14  15 ± 6 nM
16. B20  15 ± 4 nM
17. B5  14 ± 4 nM
18. B3  13.8 ± 2.1 nM
19. B8  13.2 ± 2.6 nM
20. B2  8.1 ± 1.8 nM
21. B13  7.8 ± 2.4 nM
22. B1  6.8 ± 1.2 nM
23. B24  6.4 ± 1.1 nM
24. B17  6.3 ± 0.7 nM
25. B18  5.3 ± 0.6 nM
26. B4  4.7 ± 0.4 nM
27. B16  4.5 ± 0.9 nM
28. B15  3.4 ± 0.6 nM
